Assay results published in article PMC9482650, “Quantitative fragmentomics allow affinity mapping of interactomes” (Nature Communications, 2022).
Changes are numbered by the printed parent chain.

How the values were obtained:
Test in all cases: holdup assay
Design in all cases: key: below the threshold = too weak to quantify, mostly under pKd 3.1 to 4
[1] = target: T1, SNTG1, Q9NSN8
T1 sequence (Q9NSN8 52-150, limits assumed, looked up): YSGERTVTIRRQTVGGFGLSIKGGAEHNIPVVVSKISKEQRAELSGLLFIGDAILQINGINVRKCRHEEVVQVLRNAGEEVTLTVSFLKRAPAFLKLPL

[2] = target: NOS1, P29475
[3] = target: T2, PTPN13_1, Q12923
T2 sequence (Q12923 1088-1188, limits assumed, looked up): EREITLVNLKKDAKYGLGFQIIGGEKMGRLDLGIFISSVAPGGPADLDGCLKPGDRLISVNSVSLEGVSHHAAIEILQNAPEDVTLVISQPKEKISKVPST

[4] = target: T3, APBA2_2, Q99767
T3 sequence (Q99767 654-744, limits assumed, looked up): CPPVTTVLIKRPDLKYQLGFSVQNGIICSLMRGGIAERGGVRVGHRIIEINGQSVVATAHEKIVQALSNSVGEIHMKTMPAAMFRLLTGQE

[5] = target: PICK1, Q9NRD5
[6] = target: PARD3_3, Q8TEW0
[7] = target: T4, APBA1_2, Q02410
T4 sequence (Q02410 742-832, limits assumed, looked up): T3 sequence (Q99767 654-744, limits assumed, looked up) with K10R, K15R, A59P, Q65H, A66I, S70A, F84Y, G89A

[8] = target: MAGI1_1, Q96QZ7
[9] = target: IL16_4, Q14005
[10] = target: T5, LIN7A, O14910
T5 sequence (O14910 103-200, limits assumed, looked up): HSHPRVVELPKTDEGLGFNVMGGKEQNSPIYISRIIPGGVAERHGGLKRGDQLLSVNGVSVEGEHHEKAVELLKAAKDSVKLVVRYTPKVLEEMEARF

[11] = target: T6, LNX2_2, Q8N448
T6 sequence (Q8N448 334-432, limits assumed, looked up): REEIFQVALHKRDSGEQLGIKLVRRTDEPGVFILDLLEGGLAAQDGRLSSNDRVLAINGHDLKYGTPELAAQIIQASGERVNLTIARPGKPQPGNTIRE

[12] = target: T7, SYNJ2BP, P57105
T7 sequence (P57105 8-110, limits assumed, looked up): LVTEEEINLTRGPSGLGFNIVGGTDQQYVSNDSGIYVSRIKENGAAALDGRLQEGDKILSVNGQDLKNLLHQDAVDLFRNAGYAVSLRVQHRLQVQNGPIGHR

[13] = target: T8, ARHGEF11, O15085
T8 sequence (O15085 42-136, limits assumed, looked up): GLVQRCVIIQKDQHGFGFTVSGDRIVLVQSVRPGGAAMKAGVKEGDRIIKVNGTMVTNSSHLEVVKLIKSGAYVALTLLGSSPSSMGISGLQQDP

[14] = target: GIPC2, Q8TF65
[15] = target: T9, MPP7, Q5T2T1
T9 sequence (Q5T2T1 134-230, limits assumed, looked up): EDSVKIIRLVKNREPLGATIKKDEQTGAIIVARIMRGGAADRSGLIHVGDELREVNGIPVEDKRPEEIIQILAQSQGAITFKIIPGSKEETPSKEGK

[16] = target: DLG4_1, P78352
[17] = target: DLG4_2, P78352
[18] = target: T10, NHERF3_3, Q5T2W1
T10 sequence (Q5T2W1 238-333, limits assumed, looked up): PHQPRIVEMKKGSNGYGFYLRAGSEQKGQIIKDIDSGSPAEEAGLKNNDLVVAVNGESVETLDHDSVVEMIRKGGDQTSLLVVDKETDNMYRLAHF

[19] = target: PDZRN4_1, Q6ZMN7
[20] = target: GRIP2_4, Q9C0E4
[21] = target: T11, GRIP1_2, Q9Y3R0
T11 sequence (Q9Y3R0 145-248, limits assumed, looked up): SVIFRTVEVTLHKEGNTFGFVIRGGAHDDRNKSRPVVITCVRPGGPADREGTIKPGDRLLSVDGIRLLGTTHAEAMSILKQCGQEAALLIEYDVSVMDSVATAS

[22] = target: Inadl_8, Q8NI35
[23] = target: Inadl_2, Q8NI35
[24] = target: T12, SNTA1, Q13424
T12 sequence (Q13424 82-180, limits assumed, looked up): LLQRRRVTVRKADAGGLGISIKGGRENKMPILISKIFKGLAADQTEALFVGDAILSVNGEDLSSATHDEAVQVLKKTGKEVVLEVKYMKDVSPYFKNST

[25] = target: Inadl_4, Q8NI35
[26] = target: SNX27, Q96L92
[27] = plain residues with an end cap or a label only (N-terminal biotin on a linker: ahx)
[28] = plain residues with an end cap or a label only (N-terminal biotin on a linker: ttds)

Chain of IL16_4, Q14005 (Q14005 1229-1329): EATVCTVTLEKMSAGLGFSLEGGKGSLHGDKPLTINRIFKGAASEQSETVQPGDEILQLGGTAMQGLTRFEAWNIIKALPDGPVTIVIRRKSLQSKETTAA
Chain of GIPC2, Q8TF65 (Q8TF65 112-203): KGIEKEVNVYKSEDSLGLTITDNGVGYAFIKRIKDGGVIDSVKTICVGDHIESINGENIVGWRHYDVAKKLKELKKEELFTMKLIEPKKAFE
Chain of DLG4_2, P78352 (P78352 155-259): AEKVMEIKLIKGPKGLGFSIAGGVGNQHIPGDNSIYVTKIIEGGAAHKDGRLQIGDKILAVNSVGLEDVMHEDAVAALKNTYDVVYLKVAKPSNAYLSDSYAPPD
Chain of PDZRN4_1, Q6ZMN7 (Q6ZMN7 213-318): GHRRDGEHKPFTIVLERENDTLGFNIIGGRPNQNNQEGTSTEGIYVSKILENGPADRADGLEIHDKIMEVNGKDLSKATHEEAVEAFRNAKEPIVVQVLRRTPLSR
Chain of GRIP2_4, Q9C0E4 (Q9C0E4 446-548): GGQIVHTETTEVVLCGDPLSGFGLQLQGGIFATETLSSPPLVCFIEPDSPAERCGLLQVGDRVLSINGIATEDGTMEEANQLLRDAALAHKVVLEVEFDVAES
Chain of NOS1, P29475 (P29475 9-101): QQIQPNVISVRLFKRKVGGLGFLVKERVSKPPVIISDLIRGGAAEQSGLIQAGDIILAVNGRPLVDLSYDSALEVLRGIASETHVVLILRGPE
Chain of PARD3_3, Q8TEW0 (Q8TEW0 582-685): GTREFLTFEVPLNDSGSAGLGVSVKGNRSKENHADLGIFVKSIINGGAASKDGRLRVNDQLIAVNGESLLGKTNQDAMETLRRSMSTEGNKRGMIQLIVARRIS
Chain of PICK1, Q9NRD5 (Q9NRD5 17-115): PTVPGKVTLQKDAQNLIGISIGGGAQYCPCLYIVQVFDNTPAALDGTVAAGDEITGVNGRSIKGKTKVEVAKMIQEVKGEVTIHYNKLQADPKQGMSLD
Chain of DLG4_1, P78352 (P78352 62-152): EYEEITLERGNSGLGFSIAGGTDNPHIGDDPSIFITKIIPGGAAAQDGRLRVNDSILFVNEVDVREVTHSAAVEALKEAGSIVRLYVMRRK
Chain of Inadl_4, Q8NI35 (Q8NI35 547-651): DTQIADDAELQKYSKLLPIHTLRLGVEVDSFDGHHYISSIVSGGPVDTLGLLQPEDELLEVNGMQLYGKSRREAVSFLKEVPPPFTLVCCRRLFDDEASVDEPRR
Chain of MAGI1_1, Q96QZ7 (Q96QZ7 1-106): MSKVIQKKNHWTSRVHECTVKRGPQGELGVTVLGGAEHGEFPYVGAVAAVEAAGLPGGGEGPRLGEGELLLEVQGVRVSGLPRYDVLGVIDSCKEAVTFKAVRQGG
Chain of Inadl_8, Q8NI35 (Q8NI35 1425-1530): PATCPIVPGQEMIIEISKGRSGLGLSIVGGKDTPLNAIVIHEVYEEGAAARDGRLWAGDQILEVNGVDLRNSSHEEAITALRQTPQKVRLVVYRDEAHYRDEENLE
Chain of Inadl_2, Q8NI35 (Q8NI35 238-335): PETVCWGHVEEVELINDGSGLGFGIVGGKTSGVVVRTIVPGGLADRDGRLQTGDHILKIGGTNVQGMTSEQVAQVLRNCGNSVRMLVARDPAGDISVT

B1: LNX1, Q8TBB1 (peptide)
chain: TIVSWPGTFL
In the case of B1, the pKd [1, 27] is reported as “below the threshold”, the pKd [2, 27] is reported as “below the threshold” and the pKd [3, 27] is reported as “below the threshold”. For the same binder, the pKd [4, 27] was “below the threshold”, the pKd [5, 27] was “below the threshold” and the pKd [6, 27] was “below the threshold”. The pKd [7, 27] was 4.33, the pKd [8, 27] was “below the threshold” and the pKd [9, 27] was “below the threshold”. For the same binder, the pKd [10, 27] was “below the threshold”, the pKd [11, 27] was “below the threshold” and the pKd [12, 27] was 4.49. The pKd [13, 27] was “below the threshold”, the pKd [14, 27] was “below the threshold” and the pKd [15, 27] was “below the threshold”. For the same binder, the pKd [16, 27] was “below the threshold”, the pKd [17, 27] was “below the threshold” and the pKd [18, 27] was “below the threshold”. For the same binder, the pKd [19, 27] was 4.16, the pKd [20, 27] was “below the threshold” and the pKd [21, 27] was “below the threshold”. The pKd [22, 27] was “below the threshold”, the pKd [23, 27] was “below the threshold” and the pKd [24, 27] was “below the threshold”. For the same binder, the pKd [25, 27] was “below the threshold” and the pKd [26, 27] was 3.79.

B2: HPV31-E6, P17386 (peptide)
chain: SRRPRTETQV
B2 was tested, and the pKd [1, 28] was 4.23, the pKd [2, 28] was 3.91 and the pKd [3, 28] was “below the threshold”. The pKd [4, 28] was “below the threshold”, the pKd [5, 28] was “below the threshold” and the pKd [6, 28] was “below the threshold”. For the same binder, the pKd [7, 28] was “below the threshold”, the pKd [8, 28] was “below the threshold” and the pKd [9, 28] was “below the threshold”. For the same binder, the pKd [10, 28] was 3.51, the pKd [11, 28] was “below the threshold” and the pKd [12, 28] was 5.41. For the same binder, the pKd [13, 28] was 3.58, the pKd [14, 28] was “below the threshold” and the pKd [15, 28] was “below the threshold”. The pKd [16, 28] was 5.02, the pKd [17, 28] was 5.36 and the pKd [18, 28] was “below the threshold”. The pKd [19, 28] was 4.19, the pKd [20, 28] was “below the threshold” and the pKd [21, 28] was “below the threshold”. For the same binder, the pKd [22, 28] was “below the threshold”, the pKd [23, 28] was “below the threshold” and the pKd [24, 28] was 4.29. For the same binder, the pKd [25, 28] was “below the threshold” and the pKd [26, 28] was 4.64.

B3: TAGAP, Q8N103 (peptide)
chain: QFQYAKESYI
For B3, the pKd [1, 28] was 4.53, the pKd [2, 28] was 3.82 and the pKd [3, 28] was “below the threshold”. For the same binder, the pKd [4, 28] was “below the threshold”, the pKd [5, 28] was “below the threshold” and the pKd [6, 28] was 3.91. For the same binder, the pKd [7, 28] was 3.8, the pKd [8, 28] was “below the threshold” and the pKd [9, 28] was “below the threshold”. For the same binder, the pKd [10, 28] was “below the threshold”, the pKd [11, 28] was “below the threshold” and the pKd [12, 28] was 4.71. For the same binder, the pKd [13, 28] was “below the threshold”, the pKd [14, 28] was 3.78 and the pKd [15, 28] was “below the threshold”. The pKd [16, 28] was 3.9, the pKd [17, 28] was 4.41 and the pKd [18, 28] was “below the threshold”. The pKd [19, 28] was 3.96, the pKd [20, 28] was “below the threshold” and the pKd [21, 28] was “below the threshold”. The pKd [22, 28] was 3.78, the pKd [23, 28] was “below the threshold” and the pKd [24, 28] was 4.97. The pKd [25, 28] was “below the threshold” and the pKd [26, 28] was 3.75.
